Measured values reported in US20190309079A1 (Regeneron, published 2019).

T1: human LEPR CRH2-MMH (human, UniProt P48357 428-634, limits assumed)
T1 construct: domain: CRH2
T1 sequence (looked up): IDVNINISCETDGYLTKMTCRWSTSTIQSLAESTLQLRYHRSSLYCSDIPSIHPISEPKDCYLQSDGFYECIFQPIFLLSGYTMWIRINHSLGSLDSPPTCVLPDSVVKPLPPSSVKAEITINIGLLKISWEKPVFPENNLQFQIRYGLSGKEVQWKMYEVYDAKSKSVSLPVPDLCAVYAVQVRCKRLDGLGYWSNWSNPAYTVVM

T2: human LEPR FNIII-MMH (human, UniProt P48357 636-839, limits assumed)
T2 construct: domain: FNIII
T2 sequence (looked up): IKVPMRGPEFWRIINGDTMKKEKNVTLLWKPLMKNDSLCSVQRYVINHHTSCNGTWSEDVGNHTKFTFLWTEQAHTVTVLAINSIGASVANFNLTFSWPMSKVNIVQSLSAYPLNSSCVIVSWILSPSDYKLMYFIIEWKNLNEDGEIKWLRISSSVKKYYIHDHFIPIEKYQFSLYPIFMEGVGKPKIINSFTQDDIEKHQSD

T3: human LEPR CRH1-Ig (D2,D3)-MMH (human, UniProt P48357 230-427, limits assumed)
T3 construct: domain: CRH1-Ig (D2,D3)
T3 sequence (looked up): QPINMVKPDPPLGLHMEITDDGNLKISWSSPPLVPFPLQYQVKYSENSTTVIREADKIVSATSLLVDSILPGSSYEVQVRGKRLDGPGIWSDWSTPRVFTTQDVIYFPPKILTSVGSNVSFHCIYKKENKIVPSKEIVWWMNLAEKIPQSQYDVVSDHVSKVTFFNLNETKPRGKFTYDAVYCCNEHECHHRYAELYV

T4: human LEPR Ig-CRH2-FNIII-MMH (human, UniProt P48357 330-839, limits assumed)
T4 construct: domain: Ig-CRH2-FNIII
T4 sequence (looked up): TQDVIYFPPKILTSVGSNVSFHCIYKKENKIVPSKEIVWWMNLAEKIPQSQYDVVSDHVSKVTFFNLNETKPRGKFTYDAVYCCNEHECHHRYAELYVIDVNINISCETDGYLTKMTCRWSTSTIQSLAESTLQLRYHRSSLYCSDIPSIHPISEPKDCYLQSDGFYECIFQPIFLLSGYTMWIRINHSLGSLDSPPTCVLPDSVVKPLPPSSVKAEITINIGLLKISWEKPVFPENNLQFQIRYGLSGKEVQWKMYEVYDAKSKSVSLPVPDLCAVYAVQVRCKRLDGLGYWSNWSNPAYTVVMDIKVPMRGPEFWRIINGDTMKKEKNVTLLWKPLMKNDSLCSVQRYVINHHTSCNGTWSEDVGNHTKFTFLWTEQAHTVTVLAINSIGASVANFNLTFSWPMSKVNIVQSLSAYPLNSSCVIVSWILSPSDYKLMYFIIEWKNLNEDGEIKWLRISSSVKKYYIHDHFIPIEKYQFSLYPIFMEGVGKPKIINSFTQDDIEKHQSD

T5: human LEPR CRH1 (D1,D2)-MMH (human, UniProt P48357 22-339, limits assumed)
T5 construct: domain: CRH1 (D1,D2)
T5 sequence (looked up): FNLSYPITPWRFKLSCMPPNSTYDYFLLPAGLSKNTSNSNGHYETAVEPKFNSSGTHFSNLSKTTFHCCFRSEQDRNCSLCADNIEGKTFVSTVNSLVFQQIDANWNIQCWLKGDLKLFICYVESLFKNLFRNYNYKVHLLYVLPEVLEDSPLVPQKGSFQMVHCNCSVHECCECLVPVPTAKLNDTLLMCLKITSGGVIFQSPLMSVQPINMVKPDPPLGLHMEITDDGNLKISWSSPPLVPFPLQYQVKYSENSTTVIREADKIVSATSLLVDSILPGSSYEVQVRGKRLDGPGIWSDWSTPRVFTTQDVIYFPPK

B1: H4H16650P2 (antibody, V domains shown)
VH: QVQLVESGGGVVQPGKSLRLSCVASGFTFSSDAMYWVRQAPGKGLEWVAVIYYDGNYQYYEDSVKGRFTISRDNSQNTLDLQMNSLRVDDTAVYFCARLNWDYWYLDLWGRGTLVTVSS
VL: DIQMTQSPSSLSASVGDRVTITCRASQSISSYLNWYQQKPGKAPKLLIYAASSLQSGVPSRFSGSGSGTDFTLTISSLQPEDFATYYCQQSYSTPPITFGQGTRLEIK
B2: H4H16679P2 (antibody, V domains shown)
VH: QVQLVESGGGVVQPGRSLRLSCTASGFTFSSYAMYWVRQAPGKGLEWVSVIYYDGSYKYYADSVKGRFTISRDNSKNTLYLQMDSLRAEDTAVYYCASYNWNYWYFDFWGRGTLVTVSS
VL: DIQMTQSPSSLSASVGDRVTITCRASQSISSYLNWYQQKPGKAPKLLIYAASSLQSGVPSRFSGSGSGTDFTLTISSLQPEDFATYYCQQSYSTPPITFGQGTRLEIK
B3: H4H17321P2 (antibody, V domains shown)
VH: QVQLVESGGGVVQPGRSLRLSCEASGFSSSDNAMYWVRQAPGKGLEWVSVIYHDGSYKYYEDSVKGRFTIARDNSKNTLYLQMNSLRAEDTAVYYCARYNWNHWYFDVWGRGTLVTVSS
VL: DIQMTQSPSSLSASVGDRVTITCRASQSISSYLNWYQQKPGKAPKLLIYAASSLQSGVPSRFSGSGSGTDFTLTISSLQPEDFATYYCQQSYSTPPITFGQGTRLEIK
B4: H4H17319P2 (antibody, V domains shown)
VH: QVQLVESGGSVVQPGRSLRLSCAASGFTFSTYAMYWVRQTPGKGLEWVAVLYSDGSNKYYIDSVKGRFTISRDTSTNTLYLQMSSLRADDSALYYCARLNWDYWYFDLWGRGTLVTVSS
VL: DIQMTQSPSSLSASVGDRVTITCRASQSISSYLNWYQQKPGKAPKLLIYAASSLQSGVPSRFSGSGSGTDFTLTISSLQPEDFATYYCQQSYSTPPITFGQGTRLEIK
notes: also called REGN4461
B5: H4H18445P2 (antibody, human IgG4, V domains shown)
VH: QVQLQESGPGLVKPSQTLSLTCTVSGGSISSGGDYWSWIRQLPGKGLEWIGYIYYSGSAYYNPSLKSRGTISIDTSKNQFSLKLTSVTAADTAVYFCVKLRFLEWFLGGWFGPWGQGTLVTVSS
VL: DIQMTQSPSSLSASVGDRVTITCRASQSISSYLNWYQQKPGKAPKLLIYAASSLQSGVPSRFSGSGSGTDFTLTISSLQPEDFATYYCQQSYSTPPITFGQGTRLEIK
notes: human IgG4 Fc
B6: H4H18449P2 (antibody, human IgG4, V domains shown)
VH: EVQLVESGGGLVQPGGSLRLSCVASGFTFNKYDMHWVRQTTGKGLEWVSGIDTDGDTYYPGSVKGRFTISRENAENSLYLQMNGLRVGDTAVYYCARWPWSGFYGAFDIWGQGTMVTVSS
VL: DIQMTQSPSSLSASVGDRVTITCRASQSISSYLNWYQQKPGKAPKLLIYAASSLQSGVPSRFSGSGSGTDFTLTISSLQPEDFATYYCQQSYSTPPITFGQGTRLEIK
notes: human IgG4 Fc
B7: H4H18446P2 (antibody, human IgG4, V domains shown)
VH: EVQLVESGGGLVQPGGSLRLSCAASGFTFSNYGMTWVRQAPGKGLEWVSAITGGGGSTYYSNSVKGRFTISRDNSKNTVYLRMNSVRAEDTAVYYCAKYKWNFVDDWGQGTTVTVSS
VL: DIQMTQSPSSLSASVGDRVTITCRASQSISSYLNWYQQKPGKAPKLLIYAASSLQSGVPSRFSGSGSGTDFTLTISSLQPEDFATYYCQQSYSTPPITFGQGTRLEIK
notes: human IgG4 Fc
B8: H4H18417P2 (antibody, V domains shown)
VH: QVQLVESGGGVVQPGRSLRLSCAASGFTFSTYGMHWVRQAPGKGLEWVSVISYDESNKYYADSVKGRFTISRDNSKNALYLQMNSLRNEDTAVYYCARDRPFGLVTGWFDPWGQGTLVTVSS
VL: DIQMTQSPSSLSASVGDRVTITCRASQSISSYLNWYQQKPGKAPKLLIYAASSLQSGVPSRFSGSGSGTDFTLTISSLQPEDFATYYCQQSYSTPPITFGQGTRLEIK
B9: H4H18438P2 (antibody, V domains shown)
VH: QVQLVESGGGVVQPGRSLRLSCAASGFSFNTYGMHWVRQAPGKGLEWVTIIWYDGSIKYYADSVKGRFTISRDNSKNTLYLQMNSLRAEDTAVYYCARGGYSGYLYFDYWGQGTLVTVSS
VL: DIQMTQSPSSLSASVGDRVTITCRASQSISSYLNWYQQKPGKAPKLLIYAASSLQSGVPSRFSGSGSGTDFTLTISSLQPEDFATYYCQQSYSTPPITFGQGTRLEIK

Target: extracellular domain of Macaca fascicularis LEPR (amino acids 22-837 of XP_005543194.1, T827A) fused with the … (Macaca fascicularis; human)
Assay: cell-based or functional assay

EC50 (M); STAT3-Luc reporter, IMR-32/STAT3-Luc/MfLEPR cells [M] | Binder
2.66e-10 | B1
2.49e-10 | B2
3.68e-10 | B3
3.65e-10 | B4

Target: T1, human LEPR CRH2-MMH
Assay: Luminex, myc-captured protein on beads
Method: (§1) Aliquots of microspheres with immobilized anti-myc monoclonal antibodies, prepared as described above, were added individually to 1 mL of the each of these protein supernatants. The microspheres were gently mixed, incubated for two hours at 25° C., washed twice with 1 mL of DBPS, centrifuged to remove the supernatant and finally resuspended in 1 mL of DPBS buffer. […] of anti-myc IgG coupled microspheres from individual reactions with full length human LEPR and with each of the human LEPR domain proteins were withdrawn and mixed together in 3.6 mL of PBS+20 mg/mL BSA+0.05% sodium azide (blocking buffer).
(§2) From this mixed pool, 75 μL of microspheres were plated per well on a 96 well filter plate (Millipore, Cat. No: MSBVN1250) and mixed with 25 μL of individual anti-human LEPR monoclonal antibodies (0.5 or 5 μg/mL), incubated for two hours at 25° C. and then washed twice with 200 μL of DPBS with 0.05% Tween 20 (washing buffer). […] After 30 minutes, the samples were washed twice with 200 µL of washing buffer and resuspended in 150 μL of wash buffer. The Median Fluorescence intensity (MFI) of the microspheres was measured in a Luminex Analyzer.

Luminex MFI [MFI] | Binder
17 | B5
15 | B6
65 | B7
16 | B1
33 | B2
116 | B3
39 | B8
91 | B4

Target: T2, human LEPR FNIII-MMH
Assay: Luminex, myc-captured protein on beads
Method: as §1, §2

Luminex MFI [MFI] | Binder
230 | B5
25 | B9
13 | B6
32 | B7
6 | B1
10 | B2
40 | B3
14 | B8
20 | B4

Target: T3, human LEPR CRH1-Ig (D2,D3)-MMH
Assay: Luminex, myc-captured protein on beads
Method: as §1, §2

Luminex MFI [MFI] | Binder
40 | B5
8880 | B9
42 | B6
74 | B1
34 | B2
15 | B3
5500 | B8
14 | B4

Target: T4, human LEPR Ig-CRH2-FNIII-MMH
Assay: Luminex, myc-captured protein on beads
Method: as §1, §2

Luminex MFI [MFI] | Binder
14500 | B5
43 | B6
16900 | B7
110 | B1
42 | B2
14 | B3
37 | B8
8 | B4

Target: T5, human LEPR CRH1 (D1,D2)-MMH
Assay: Luminex, myc-captured protein on beads
Method: as §1, §2

Luminex MFI [MFI] | Binder
30 | B5
18900 | B9
2930 | B6
682 | B7
4720 | B1
4390 | B2
2650 | B3
16000 | B8
1250 | B4
